Results: article PMC4840175, “A Substrate Mimic Allows High-Throughput Assay of the FabA Protein and Consequently the Identification of a Novel Inhibitor of Pseudomonas aeruginosa FabA” (Journal of Molecular Biology, 2016)

Substrate: CCCCCCCC(O)CC(=O)SCCNC(C)=O
Test: enzyme turnover, coupled PaFabA-PaFabV fluorescence assay (estimated KM) and direct UV assay
Format: biochemical, Pseudomonas aeruginosa

B1: PaFabA (3-hydroxyacyl-[ACP] dehydratase) (Pseudomonas aeruginosa PAO1) (protein)
chain: MTKQHAFTREDLLRCSRGELFGPGNAQLPAPNMLMIDRIVHISDVGGKYGKGELVAELDINPDLWFFACHFEGDPVMPGCLGLDAMWQLVGFYLGWQGNPGRGRALGSGEVKFFGQVLPTAKKVTYNIHIKRTINRSLVLAIADGTVSVDGREIYSAEGLRVGLFTSTDSF
B1 was tested, and the Km was 400 µM.
